Experimental data from PMC3280358 (2012).
Residue numbers refer to the chain shown, from its start. In names and notes the source's numbering stands. Each block holds one binder with its values, some of them ahead of it.

Experiments:
[1] = target: T13 monophosphorylated Rad51 NTD peptide (human, UniProt Q06609, phosphothreonine at T13); assay: ITC
[2] = target: T13/S14 diphosphorylated Rad51 NTD peptide (human, UniProt Q06609, phosphothreonine at T13; phosphoserine at S14); assay: ITC

Kd [1]: 24 µM
B1: Nbs1 (1-382) K160M (domain or fragment)
chain: MWKLLPAAGPAGGEPYRLLTGVEYVVGRKNCAILIENDQSISRNHAVLTANFSVTNLSQTDEIPVLTLKDNSKYGTFVNEEKMQNGFSRTLKSGDGITFGVFGSKFRIEYEPLVACSSCLDVSGKTALNQAILQLGGFTVNNWTEECTHLVMVSVKVTIMTICALICGRPIVKPEYFTEFLKAVESKKQPPQIESFYPPLDEPSIGSKNVDLSGRQERKQIFKGKTFIFLNAKQHKKLSSAVVFGGGEARLITEENEEEHNFFLAPGTCVVDTGITNSQTLIPDCQKKWIQSIMDMLQRQGLRPIPEAEIGLAVIFMTTKNYCDPQGHPSTGLKTTTPGPSLSQGVSVDEKLMPSAPVNTTTYVADTESEQADTWDLSERPK

Kd [2]: 57 µM
B2: recombinant fragment of Nbs1 (residues 1-382), wild type (domain or fragment)
chain: B1 chain with M160K
